Data reported in patent publication US20150299281A1 (ZEALAND PHARMA A S, published 2015).
Square brackets hold non-standard residues; d marks the D form. 1Nal = N[C@@H](Cc1cccc2ccccc12)C(=O)O; Aib = CC(C)(N)C(=O)O

How the values were obtained:
human GIP receptor = molecular target: T1, human GIP receptor (human, UniProt P48546 22-466); assay: cell-based or functional assay
T1 sequence (looked up): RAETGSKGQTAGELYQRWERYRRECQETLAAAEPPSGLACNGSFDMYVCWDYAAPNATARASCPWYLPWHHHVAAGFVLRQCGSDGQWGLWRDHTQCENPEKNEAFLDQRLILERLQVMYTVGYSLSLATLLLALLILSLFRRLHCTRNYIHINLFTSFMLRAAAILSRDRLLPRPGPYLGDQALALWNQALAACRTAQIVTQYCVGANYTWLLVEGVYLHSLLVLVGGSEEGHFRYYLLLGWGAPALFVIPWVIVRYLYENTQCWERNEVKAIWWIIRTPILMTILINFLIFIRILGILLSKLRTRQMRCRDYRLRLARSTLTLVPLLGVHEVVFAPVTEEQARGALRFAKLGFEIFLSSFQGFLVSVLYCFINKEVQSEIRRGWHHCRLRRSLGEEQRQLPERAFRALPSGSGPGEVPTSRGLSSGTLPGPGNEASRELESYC

human GLP-1 receptor = human GLP-1 receptor (human, UniProt P43220 24-463); assay: cell-based or functional assay

| Binder | EC50, cAMP induction in HEK293 cells expressing human GIP R (human GIP receptor) [nM] | EC50, cAMP induction in HEK293 cells expressing human GLP-1 R (human GLP-1 receptor) [nM] |
| --- | --- | --- |
| H-Y[Aib]EGTFTSDYSIYLDKKAQKEFVNWLLA[Aib]K-NH2 (SMILES CC[C@H](C)[C@H](NC(=O)[C@H](CO)NC(=O)[C@H](Cc1ccc(O)cc1)NC(=O)[C@H](CC(=O)O)NC(=O)[C@H](CO)NC(=O)[C@@H](NC(=O)[C@H](Cc1ccccc1)NC(=O)[C@@H](NC(=O)CNC(=O)[C@H](CCC(=O)O)NC(=O)C(C)(C)NC(=O)[C@@H](N)Cc1ccc(O)cc1)[C@@H](C)O)[C@@H](C)O)C(=O)N[C@@H](Cc1ccc(O)cc1)C(=O)N[C@@H](CC(C)C)C(=O)N[C@@H](CC(=O)O)C(=O)N[C@@H](CCCCN)C(=O)N[C@@H](CCCCN)C(=O)N[C@@H](C)C(=O)N[C@@H](CCC(N)=O)C(=O)N[C@@H](CCCCN)C(=O)N[C@@H](CCC(=O)O)C(=O)N[C@@H](Cc1ccccc1)C(=O)N[C@H](C(=O)N[C@@H](CC(N)=O)C(=O)N[C@@H](Cc1c[nH]c2ccccc12)C(=O)N[C@@H](CC(C)C)C(=O)N[C@@H](CC(C)C)C(=O)N[C@@H](C)C(=O)NC(C)(C)C(=O)N[C@@H](CCCCN)C(N)=O)C(C)C) [Compound 19] | 0.015 | 0.0073 |
| H-Y[Aib]EGTFTSDYSIYLDKKAQRAFVNWLKA[Aib]K-NH2 (SMILES CC[C@H](C)[C@H](NC(=O)[C@H](CO)NC(=O)[C@H](Cc1ccc(O)cc1)NC(=O)[C@H](CC(=O)O)NC(=O)[C@H](CO)NC(=O)[C@@H](NC(=O)[C@H](Cc1ccccc1)NC(=O)[C@@H](NC(=O)CNC(=O)[C@H](CCC(=O)O)NC(=O)C(C)(C)NC(=O)[C@@H](N)Cc1ccc(O)cc1)[C@@H](C)O)[C@@H](C)O)C(=O)N[C@@H](Cc1ccc(O)cc1)C(=O)N[C@@H](CC(C)C)C(=O)N[C@@H](CC(=O)O)C(=O)N[C@@H](CCCCN)C(=O)N[C@@H](CCCCN)C(=O)N[C@@H](C)C(=O)N[C@@H](CCC(N)=O)C(=O)N[C@@H](CCCNC(=N)N)C(=O)N[C@@H](C)C(=O)N[C@@H](Cc1ccccc1)C(=O)N[C@H](C(=O)N[C@@H](CC(N)=O)C(=O)N[C@@H](Cc1c[nH]c2ccccc12)C(=O)N[C@@H](CC(C)C)C(=O)N[C@@H](CCCCN)C(=O)N[C@@H](C)C(=O)NC(C)(C)C(=O)N[C@@H](CCCCN)C(N)=O)C(C)C) [Compound 23] | 0.42 | 0.012 |
| H-Y[Aib]EGTFTSDYSIYLDKKAQRAFVNWLLA[Aib]KYG[1Nal]LDF-NH2 (SMILES CC[C@H](C)[C@H](NC(=O)[C@H](CO)NC(=O)[C@H](Cc1ccc(O)cc1)NC(=O)[C@H](CC(=O)O)NC(=O)[C@H](CO)NC(=O)[C@@H](NC(=O)[C@H](Cc1ccccc1)NC(=O)[C@@H](NC(=O)CNC(=O)[C@H](CCC(=O)O)NC(=O)C(C)(C)NC(=O)[C@@H](N)Cc1ccc(O)cc1)[C@@H](C)O)[C@@H](C)O)C(=O)N[C@@H](Cc1ccc(O)cc1)C(=O)N[C@@H](CC(C)C)C(=O)N[C@@H](CC(=O)O)C(=O)N[C@@H](CCCCN)C(=O)N[C@@H](CCCCN)C(=O)N[C@@H](C)C(=O)N[C@@H](CCC(N)=O)C(=O)N[C@@H](CCCNC(=N)N)C(=O)N[C@@H](C)C(=O)N[C@@H](Cc1ccccc1)C(=O)N[C@H](C(=O)N[C@@H](CC(N)=O)C(=O)N[C@@H](Cc1c[nH]c2ccccc12)C(=O)N[C@@H](CC(C)C)C(=O)N[C@@H](CC(C)C)C(=O)N[C@@H](C)C(=O)NC(C)(C)C(=O)N[C@@H](CCCCN)C(=O)N[C@@H](Cc1ccc(O)cc1)C(=O)NCC(=O)N[C@@H](Cc1cccc2ccccc12)C(=O)N[C@@H](CC(C)C)C(=O)N[C@@H](CC(=O)O)C(=O)N[C@@H](Cc1ccccc1)C(N)=O)C(C)C) [Compound 25] | 0.12 | 0.041 |
| H-Y[Aib]EGTFTSDYSIYLDKKAQRAFVNWLL[Aib]K-NH2 (SMILES CC[C@H](C)[C@H](NC(=O)[C@H](CO)NC(=O)[C@H](Cc1ccc(O)cc1)NC(=O)[C@H](CC(=O)O)NC(=O)[C@H](CO)NC(=O)[C@@H](NC(=O)[C@H](Cc1ccccc1)NC(=O)[C@@H](NC(=O)CNC(=O)[C@H](CCC(=O)O)NC(=O)C(C)(C)NC(=O)[C@@H](N)Cc1ccc(O)cc1)[C@@H](C)O)[C@@H](C)O)C(=O)N[C@@H](Cc1ccc(O)cc1)C(=O)N[C@@H](CC(C)C)C(=O)N[C@@H](CC(=O)O)C(=O)N[C@@H](CCCCN)C(=O)N[C@@H](CCCCN)C(=O)N[C@@H](C)C(=O)N[C@@H](CCC(N)=O)C(=O)N[C@@H](CCCNC(=N)N)C(=O)N[C@@H](C)C(=O)N[C@@H](Cc1ccccc1)C(=O)N[C@H](C(=O)N[C@@H](CC(N)=O)C(=O)N[C@@H](Cc1c[nH]c2ccccc12)C(=O)N[C@@H](CC(C)C)C(=O)N[C@@H](CC(C)C)C(=O)NC(C)(C)C(=O)N[C@@H](CCCCN)C(N)=O)C(C)C) [Compound 24] | 0.096 | 0.0085 |
| H-Y[Aib]EGTFTSDYSIYLDKKAQRAFVNWLVA[Aib]K-NH2 (SMILES CC[C@H](C)[C@H](NC(=O)[C@H](CO)NC(=O)[C@H](Cc1ccc(O)cc1)NC(=O)[C@H](CC(=O)O)NC(=O)[C@H](CO)NC(=O)[C@@H](NC(=O)[C@H](Cc1ccccc1)NC(=O)[C@@H](NC(=O)CNC(=O)[C@H](CCC(=O)O)NC(=O)C(C)(C)NC(=O)[C@@H](N)Cc1ccc(O)cc1)[C@@H](C)O)[C@@H](C)O)C(=O)N[C@@H](Cc1ccc(O)cc1)C(=O)N[C@@H](CC(C)C)C(=O)N[C@@H](CC(=O)O)C(=O)N[C@@H](CCCCN)C(=O)N[C@@H](CCCCN)C(=O)N[C@@H](C)C(=O)N[C@@H](CCC(N)=O)C(=O)N[C@@H](CCCNC(=N)N)C(=O)N[C@@H](C)C(=O)N[C@@H](Cc1ccccc1)C(=O)N[C@H](C(=O)N[C@@H](CC(N)=O)C(=O)N[C@@H](Cc1c[nH]c2ccccc12)C(=O)N[C@@H](CC(C)C)C(=O)N[C@H](C(=O)N[C@@H](C)C(=O)NC(C)(C)C(=O)N[C@@H](CCCCN)C(N)=O)C(C)C)C(C)C) [Compound 21] | 0.08 | 0.009 |
| H-Y[Aib]EGTFTSDYSIYLDSKAKRAFVNWLLA[Aib]K-NH2 (SMILES CC[C@H](C)[C@H](NC(=O)[C@H](CO)NC(=O)[C@H](Cc1ccc(O)cc1)NC(=O)[C@H](CC(=O)O)NC(=O)[C@H](CO)NC(=O)[C@@H](NC(=O)[C@H](Cc1ccccc1)NC(=O)[C@@H](NC(=O)CNC(=O)[C@H](CCC(=O)O)NC(=O)C(C)(C)NC(=O)[C@@H](N)Cc1ccc(O)cc1)[C@@H](C)O)[C@@H](C)O)C(=O)N[C@@H](Cc1ccc(O)cc1)C(=O)N[C@@H](CC(C)C)C(=O)N[C@@H](CC(=O)O)C(=O)N[C@@H](CO)C(=O)N[C@@H](CCCCN)C(=O)N[C@@H](C)C(=O)N[C@@H](CCCCN)C(=O)N[C@@H](CCCNC(=N)N)C(=O)N[C@@H](C)C(=O)N[C@@H](Cc1ccccc1)C(=O)N[C@H](C(=O)N[C@@H](CC(N)=O)C(=O)N[C@@H](Cc1c[nH]c2ccccc12)C(=O)N[C@@H](CC(C)C)C(=O)N[C@@H](CC(C)C)C(=O)N[C@@H](C)C(=O)NC(C)(C)C(=O)N[C@@H](CCCCN)C(N)=O)C(C)C) [Compound 18] | 0.36 | 0.015 |
| H-Y[Aib]EGTFTSDYSIYLDKKAQRAFVKWLLA[Aib]K-NH2 (SMILES CC[C@H](C)[C@H](NC(=O)[C@H](CO)NC(=O)[C@H](Cc1ccc(O)cc1)NC(=O)[C@H](CC(=O)O)NC(=O)[C@H](CO)NC(=O)[C@@H](NC(=O)[C@H](Cc1ccccc1)NC(=O)[C@@H](NC(=O)CNC(=O)[C@H](CCC(=O)O)NC(=O)C(C)(C)NC(=O)[C@@H](N)Cc1ccc(O)cc1)[C@@H](C)O)[C@@H](C)O)C(=O)N[C@@H](Cc1ccc(O)cc1)C(=O)N[C@@H](CC(C)C)C(=O)N[C@@H](CC(=O)O)C(=O)N[C@@H](CCCCN)C(=O)N[C@@H](CCCCN)C(=O)N[C@@H](C)C(=O)N[C@@H](CCC(N)=O)C(=O)N[C@@H](CCCNC(=N)N)C(=O)N[C@@H](C)C(=O)N[C@@H](Cc1ccccc1)C(=O)N[C@H](C(=O)N[C@@H](CCCCN)C(=O)N[C@@H](Cc1c[nH]c2ccccc12)C(=O)N[C@@H](CC(C)C)C(=O)N[C@@H](CC(C)C)C(=O)N[C@@H](C)C(=O)NC(C)(C)C(=O)N[C@@H](CCCCN)C(N)=O)C(C)C) [Compound 20] | 0.049 | 0.009 |
